From publication PMC2923608, “Structural Insights into the Quinolone Resistance Mechanism of Mycobacterium tuberculosis DNA Gyrase” (PLoS ONE, 2010)

B1: Toprim domain of DNA gyrase subunit B from Mycobacterium tuberculosis (TopBK) (domain or fragment)
chain: TDPRKSELYVVEGDSAGGSAKSGRDSMFQAILPLRGKIINVEKARIDRVLKNTEVQAIITALGTGIHDEFDIGKLRYHKIVLMADADVDGQHISTLLLTLLFRFMRPLIENGHVFLAQPPLYKLKWQRSDPEFAYSDRERDGLLEAGLKAGKKINKEDGIQRYKGLGEMDAKELWETTMDPSVRVLRQVTLDDAAAADELFSILMGEDVDARRSFITRNAKDVRFLDV
notes: DNA gyrase subunit B (GyrB), Mycobacterium tuberculosis, Toprim domain; the methods give residues 448-675, the results give 448-654 (the crystal model runs from T448 to E654); also called C-terminal GyrB domain
B2: breakage-reunion domain of DNA gyrase subunit A from M. tuberculosis (GA57BK) (domain or fragment)
chain: MTDTTLPPDDSLDRIEPVDIEQEMQRSYIDYAMSVIVGRALPEVRDGLKPVHRRVLYAMFDSGFRPDRSHAKSARSVAETMGNYHPHGDASIYDSLVRMAQPWSLRYPLVDGQGNFGSPGNDPPAAMRYTEARLTPLAMEMLREIDEETVDFIPNYDGRVQEPTVLPSRFPNLLANGSGGIAVGMATNIPPHNLRELADAVFWALENHDADEEETLAAVMGRVKGPDFPTAGLIVGSQGTADAYKTGRGSIRMRGVVEVEEDSRGRTSLVITELPYQVNHDNFITSIAEQVRDGKLAGISNIEDQSSDRVGLRIVIEIKRDAVAKVVINNLYKHTQLQTSFGANMLAIVDGVPRTLRLDQLIRYYVDHQLDVIVRRTTYRLRKANERAHILRGLVKALDALDEVIALIRASETVDIARAGLIELLDIDEIQAQAILDMQLRRLAALERQRIIDDLAKIEAEIADLEDILAKPERQRGIVRDELAEIVDRHGDDRRTRIIAAD
notes: DNA gyrase subunit A (GyrA), Mycobacterium tuberculosis, breakage-reunion domain, residues 1-502, 57 kDa; also called entire N-terminal GyrA domain

Assays:
[1] = molecular target: the molecule itself; assay: AUC; sedimentation velocity, 20°C, 42000 rpm, 20 mM Tris pH 8; TopBK at 0.5, 1 and 4 mg/ml (18, 37 and 148 µM); the result is told for the concentration corresponding to the crystallization conditions; monomer and dimer
[2] = molecular target: the molecule itself; assay: AUC; sedimentation velocity, 20°C, 42000 rpm, 20 mM Tris pH 8; GA57BK at 1 mg/ml (17.5 µM)

Protein | stoichiometry N [1] | stoichiometry N [2]
B1 | 2 | –
B2 | – | 2
